Reference: patent publication US20230302100A1 (published 2023)

Assays:
denosumab (XGEVA) = assay: cell-based or functional assay
[1] = target: rabbit anti-BSA (ACRIS, #R1048P); assay: cell-based or functional assay

Binder | IgG2 (denosumab) cleavage, SDS-PAGE titration: fold efficacy over IdeZ (denosumab (XGEVA)) [fold vs pCART144] | pCART124 ratio (fold change in potency relative to IdeS), ELISA-based potency assay [1]
pCART203 (enzyme) MDDYQRNATEAYAKEVPHQITSVWTKGVTPPEQFTQGEDVIHAPYLAHQGWYDITKAFDGKDNLLCGAATAGNMLHWWFDQNKTEIEAYLSKHPEKQKIIFNNQELFDLKAAIDTKDSQTNSQLFNYFRDKAFPNLSARQLGVMPDLVLDMFINGYYLNVFKTQSTDVNRPYQDKDKRGGIFDAVFTRGDQTTLLTARHDLKNKGLNDISTIIKQELTEGRALALSHTYANVSISHVINLWGADFNAEGNLEAIYVTDSDANASIGMKKYFVGINAHGHVAISAKKIEGENIGAQVLGLFTLSSGKDIWQKLSGGGHHHHHH | ~3 | ~3.5 fold over IdeS
pCART197 (enzyme) MDDYQRNATEAYAKEVPHQITSVWTKGVTPLTPEQFRYNNEDVIHAPYLANQGWYDITKAFDGKDNLLCGAATAGNMLHWWFDQNKTEIEAYLSKHPEKQKIIFRNQELFDLKEAIRTKDSQTNSQLFEYFRDKAFPYLSARQLGVMPDLVLDMFINGYYLNVFKTQSTDVKRPYQDKDKRGGIFDAVFTRGNQTTLLTARHDLKNKGLNDISTIIKEELTKGRALALSHTYANVSISHVINLWGADFNAEGNLEAIYVTDSDANASIGMKKYFVGINKHGHVAISAKKIEGENIGAQVLGLFTLSSGKDIWQKLNGGGHHHHHH |  | 8 fold over pCART124
pCART201 (enzyme) MSVWTKGVTPLTPEQFRYNNEDVIHAPYLAHQGWYDITKAFDGKDNLLCGAATAGNMLHWWFDQNKTEIEAYLSKHPEKQKIIFNNQELFDLKAAIDTKDSQTNSQLFNYFRDKAFPNLSARQLGVMPDLVLDMFINGYYLNVFKTQSTDVNRPYQDKDKRGGIFDAVFTRGDQTTLLTARHDLKNKGLNDISTIIKQELTEGRALALSHTYANVSISHVINLWGADFNAEGNLEAIYVTDSDANASIGMKKYFVGINAHGHVAISAKKIEGENIGAQVLGLFTLSSGKDIWQKLSGGGHHHHHH |  | 8 fold over pCART124
